The record followed here is publication PMC8561740.

One may read the stoichiometry N as a count of units in the complex or per binding partner.

This assay addresses bovine thyroglobulin (natively iodinated) (bovine) (UniProt P01267). The experiment in a line: cryo-EM structure; single-particle cryoEM; Tg at 7 mg/ml in 10 mM HEPES pH 7.4, 100 mM NaCl with 0.2% (w/v) CHAPS; vitrified at 4°C; C2 symmetry expansion, focused refinements.

“bovine thyroglobulin (natively iodinated) (from UniProt P01267 20-2769) (natural protein)”: the stoichiometry N stood at 2.
